According to patent US20170008928A1, “NOVEL PEPTIDES AND PEPTIDE DERIVATIVES AND USES THEREOF” (Novo Nordisk A/S, priority 2015, published 2017):
Starred links: 1 amine or outer side, 2 acyl side, 3 side chain; linkers in the order of their positions; H or OH if unused. Non-standard residues stand in square brackets, D forms with d. Residues, ends and D or L forms follow the SMILES beside them. No end group written: not given here. *: point of attachment. Phe(4-CH2SO3H) = N[C@@H](Cc1ccc(CS(=O)(=O)O)cc1)C(=O)O; sY = N[C@@H](Cc1ccc(OS(=O)(=O)O)cc1)C(=O)O; C18 diacid = O=C(O)CCCCCCCCCCCCCCCCC(=O)*; NMe1Nal = CN[C@@H](Cc1cccc2ccccc12)C(=O)O; γGlu = O=C(O)[C@H](CCC(=O)[*:2])N[*:1]; NMeF = CN[C@@H](Cc1ccccc1)C(=O)O; dNMeD = CN[C@H](CC(=O)O)C(=O)O; Nle = CCCC[C@H](N)C(=O)O; AEEA = NCCOCCOCC(=O)O

T1: human cholecystokinin-2 receptor (CCK-2R) (Homo sapiens, UniProt P32239)
T1 construct: host or cells: 1321-N1 cells (plasma membranes prepared by Evotec AG Hamburg)
T1 sequence (P32239 1-447): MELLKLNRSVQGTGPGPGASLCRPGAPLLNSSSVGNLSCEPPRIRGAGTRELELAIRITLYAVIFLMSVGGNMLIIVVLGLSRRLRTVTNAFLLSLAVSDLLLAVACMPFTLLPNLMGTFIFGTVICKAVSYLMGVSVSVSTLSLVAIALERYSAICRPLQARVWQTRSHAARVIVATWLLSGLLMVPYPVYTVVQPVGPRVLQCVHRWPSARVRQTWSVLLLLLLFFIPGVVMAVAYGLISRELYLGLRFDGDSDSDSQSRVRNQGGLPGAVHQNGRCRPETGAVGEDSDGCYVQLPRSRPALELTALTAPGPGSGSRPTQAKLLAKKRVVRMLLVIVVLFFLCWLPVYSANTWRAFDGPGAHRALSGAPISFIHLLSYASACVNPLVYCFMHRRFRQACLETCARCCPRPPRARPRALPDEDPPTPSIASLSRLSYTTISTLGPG

T2: human cholecystokinin-2 receptor (human), P32239
T2 chain: T1 sequence (P32239 1-447)

T3: human cholecystokinin-1 receptor (human), P32238
T3 chain: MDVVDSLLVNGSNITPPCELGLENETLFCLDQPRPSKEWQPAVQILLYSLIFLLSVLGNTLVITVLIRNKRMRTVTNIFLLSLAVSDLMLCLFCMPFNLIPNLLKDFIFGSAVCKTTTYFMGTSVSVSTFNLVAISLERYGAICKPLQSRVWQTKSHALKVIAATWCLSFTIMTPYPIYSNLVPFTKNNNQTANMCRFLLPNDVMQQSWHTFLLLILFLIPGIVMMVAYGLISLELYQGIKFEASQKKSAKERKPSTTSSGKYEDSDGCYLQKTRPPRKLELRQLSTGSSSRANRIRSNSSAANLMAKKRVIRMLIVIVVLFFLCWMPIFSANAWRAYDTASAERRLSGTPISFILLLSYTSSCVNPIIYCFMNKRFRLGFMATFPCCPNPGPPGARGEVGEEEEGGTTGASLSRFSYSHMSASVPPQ


Legend:
[1] = Chemical stability compared to CCK-8s, 8 mM phosphate pH 7.4, RP-UHPLC; assay type: physicochemical; conditions: for Absolute purity loss (pp): 1 mM in 8 mM sodium phosphate pH 7.4
Protocol: The resulting samples were stored in HPLC vials at 5° C. and 37° C. for 2 weeks. The samples were analysed in the beginning of the experiment (t=0), after one week and after two weeks by RP-UHPLC with a mobile phase containing phosphate and with a gradient of acetonitrile. UV detection at 215 nm was used. Samples after one week and two weeks were analysed twice. The calculations were done as described above, and the results are summarised in Table 7 (average of two determinations).

[2] = Pharmacokinetic (PK) studies in mini-pig, i.v.; assay type: in vivo; conditions: i.v. 5 nmol/kg, female Göttingen mini-pigs, harmonic mean; for half-life: minipig, plasma, iv, read-out: Plasma terminal half-life (T½) (converted)
Protocol: The purpose of this study is to determine the protraction in vivo of a number of CCK derivatives of the invention after intravenous (i.v.) administration to mini-pigs, i.e. the prolongation of their time in the body and thereby their time of action. This was done in pharmacokinetic (PK) studies, where the terminal half-life of the derivative in question was determined. By terminal half-life is generally meant the period of time it takes to halve a certain plasma concentration, measured after the initial distribution phase.
The derivatives of the compounds listed in Table 4 were subjected to PK studies as described in the following.
Female Göttingen mini-pigs obtained from Ellegaard Göttingen Minipigs (Dalmose, Denmark) at approximately 6 months of age and weighing approximately 17 kg were used in the studies. […] Additional blood samples were collected for the derivatives of Examples 2, 4, 7, 8, and 9 at the following time points: 5, 12, 22, 28 and 144 hours. The blood samples were collected into test tubes containing EDTA buffer for stabilisation and kept on ice for max. 20 minutes before centrifugation. The centrifugation procedure to separate plasma was: 4° C., approx. 2500 g for 10 minutes. Plasma was collected and immediately transferred to Micronic tubes stored at −20° C. until assayed.
Plasma was pipetted into Micronic tubes on dry ice, and kept at −20° C. until analysed for plasma concentration of the respective CCK derivative using LC-MS. The plasma samples (including standard curve samples used for quantitation of unknowns and prepared from blank plasma spiked with CCK compound at a concentration range of 0.5-2000 nM for the compounds of Examples 3, 5, 6 or 0.5-1000 nM for the remaining Example compounds) were protein precipitated using three volumes of methanol and centrifuged (16000×g, 4° C., 20 min). The supernatants were injected into the chromatographic system (TurboFlow Transcend 1250 & 10 valve VIM, Thermo Fisher Scientific) which consisted of an initial Turboflow Cyclone purification column 0.5×50 mm (Thermo Fischer Scientific) and an eluting Aeris peptide 3.6 μm XB—C18 column 2.1×50 mm (Phenomenex) kept at 60° C.
The CCK derivatives of Examples 2-9 were eluted using LC-MS method I: A chromatographic gradient system with mobile phases consisting of water with 0.1 v/v % formic acid (mobile phase A) and water/acetonitrile 10/90 v/v with 0.1 v/v % formic acid (mobile phase B). The 2 minute gradient started at 60% mobile phase B and ended at 100% mobile phase B with a flow of 0.4 mL/min. The CCK derivatives were detected and quantified after on-line infusion of the LC flow to the LTQ OrbiTrap Discovery mass spectrometer (Thermo Fischer Scientific) equipped with an electrospray interface operated in negative mode, ESI− (Sheath gas flow rate at 40, Aux gas flow rate at 30, Sweep gas flow rate at 2, Spray voltage at 2.8 kV, Capillary temp. at 275° C., S-lens RF level at −125 and Heater temp. at 325° C.).
The remaining Example compounds were eluted using LC-MS method II: A chromatographic gradient system with mobile phases consisting of water with 1 v/v % formic acid (mobile phase A) and water/acetonitrile 10/90 v/v with 1 v/v % formic acid (mobile phase B). The initial 0.25 minute gradient started at 0% mobile phase B and ended at 70% mobile phase B followed by the second 2.2 minute gradient started at 70% mobile phase B and ended at 75% mobile phase B with a flow of 0.4 mL/min. These CCK derivatives were detected and quantified as described above except that the Spray voltage was 4.0 kV.
Individual plasma concentration-time profiles were analysed by a non-compartmental model in Phoenix v. 6.3 (Pharsight Inc., Mountain View, Calif., USA).

[3] = target: T1, human cholecystokinin-2 receptor (CCK-2R); assay: In vitro potency on CCK-2R, whole cell functional assay (IP1 accumulation, IP-One HTRF); assay type: cell-based; conditions: 1321-N1 cells stably expressing CCK-2R; IP1 accumulation; highest dose tested 1×10^6 pM; read-out: EC50 (CCK-2R)
[4] = target: T1, human cholecystokinin-2 receptor (CCK-2R); assay: In vitro receptor binding to CCK-2R, SPA displacement of [125I]-CCK-8s from plasma membranes
[5] = target: T2, human cholecystokinin-2 receptor …; assay: cell-based or functional assay
[6] = target: T3, human cholecystokinin-1 receptor …; assay: cell-based or functional assay
[7] = target: T2, human cholecystokinin-2 receptor …; assay: SPA competition vs [125I]-CCK-8s, membranes
[8] = target: T3, human cholecystokinin-1 receptor …; assay: SPA competition vs [125I]-CCK-8s, membranes

| Molecule | EC50 (CCK-2R) [5] [nM] | EC50 (CCK-1R) [6] [nM] | IC50 [7] [nM] | IC50 [8] [nM] | also measured |
| --- | --- | --- | --- | --- | --- |
| CSCC[C@H](NC(=O)[C@H](Cc1ccc(OS(=O)(=O)O)cc1)NC(=O)[C@@H](N)CC(=O)O)C(=O)NCC(=O)N[C@@H](Cc1c[nH]c2ccccc12)C(=O)N[C@@H](CCSC)C(=O)N[C@@H](CC(=O)O)C(=O)N[C@@H](Cc1ccccc1)C(N)=O [CCK-8s, H-Asp-Tyr(SO3H)-Met-Gly-Trp-Met-Asp-Phe-NH2] | – | – | – | – | purity at the start of the experiment (incubation time 0) ([1]; 1 mM in 8 mM sodium phosphate pH 7.4, t=0): 97.94%; Absolute purity loss (pp) ([1]; 5° C., 1 week): −0.04 pp; Absolute purity loss (pp) ([1]; 5° C., 2 weeks): 0.09 pp; Absolute purity loss (pp) ([1]; 37° C., 1 week): 1.42 pp; Absolute purity loss (pp) ([1]; 37° C., 2 weeks): 3.33 pp |
| CCCC[C@H](NC(=O)[C@H](Cc1c[nH]c2ccccc12)NC(=O)CNC(=O)[C@H](CC(C)C)NC(=O)[C@H](Cc1ccc(OS(=O)(=O)O)cc1)NC(=O)[C@H](CC(=O)O)NC(=O)COCCOCCNC(=O)COCCOCCNC(=O)CC[C@H](NC(=O)CCCCCCCCCCCCCCCCC(=O)O)C(=O)O)C(=O)N(C)[C@H](CC(=O)O)C(=O)N(C)[C@@H](Cc1cccc2ccccc12)C(N)=O [Example 4, 2-[2-[2-[[2-[2-[2-[[(4S)-4-Carboxy-4-(17-carboxyheptadecanoylamino)butanoyl]amino]ethoxy]ethoxy]acetyl]amino]ethoxy]ethoxy]acetyl-Asp-sTyr-Leu-Gly-Trp-Nle-DMeAsp-Me1Nal-amide] ({C18 diacid-γGlu-AEEA-AEEA}-D[sY]LGW[Nle][dNMeD][NMe1Nal]-NH2) | – | – | – | – | Plasma terminal half-life (T½) [2]: 147 h; EC50 [3]: 340 nM |
| CCCC[C@H](NC(=O)[C@H](Cc1c[nH]c2ccccc12)NC(=O)CNC(=O)[C@H](CC(C)C)NC(=O)[C@H](Cc1ccc(CS(=O)(=O)O)cc1)NC(=O)[C@H](CC(=O)O)NC(=O)COCCOCCNC(=O)COCCOCCNC(=O)CC[C@H](NC(=O)CCCCCCCCCCCCCCCCC(=O)O)C(=O)O)C(=O)N(C)[C@H](CC(=O)O)C(=O)N(C)[C@@H](Cc1ccccc1)C(N)=O [Example 5, 2-[2-[2-[[2-[2-[2-[[(4S)-4-Carboxy-4-(17-carboxyheptadecanoylamino)butanoyl]amino]ethoxy]ethoxy]acetyl]amino]ethoxy]ethoxy]acetyl-Asp-Phe(4-sulfomethyl)-Leu-Gly-Trp-Nle-DMeAsp-MePhe-amide] ({C18 diacid-γGlu-AEEA-AEEA}-D[Phe(4-CH2SO3H)]LGW[Nle][dNMeD][NMeF]-NH2) | – | – | – | – | half-life [2]: 106 h; IC50 [4]: 380 nM |
| CCCC[C@H](NC(=O)[C@H](Cc1c[nH]c2ccccc12)NC(=O)CNC(=O)[C@H](CC(C)C)NC(=O)[C@H](Cc1ccc(OS(=O)(=O)O)cc1)NC(=O)[C@H](CC(=O)O)NC(=O)CCCCCCCCCCCCCCCCC(=O)O)C(=O)N(C)[C@H](CC(=O)O)C(=O)N(C)[C@@H](Cc1ccccc1)C(N)=O [Example 38, 17-Carboxyheptadecanoyl-Asp-sTyr-Leu-Gly-Trp-Nle-DMeAsp-MePhe-amide] | – | – | – | – | half-life [2]: 3 h; EC50 [3]: > 1000 nM |
| {C18 diacid-γGlu-AEEA-AEEA}-D[sY]LGWI[DMeAsp][NMeF]-NH2 | 260 | 0.18 | 2300 | 0.1 | – |
| {C18 diacid-γGlu-AEEA-AEEA}-D[sY]LGWL[DMeAsp][NMeF]-NH2 | 79 | 0.27 | 420 | – | – |
| {C18 diacid-γGlu-AEEA-AEEA}-D[sY]LGWV[DMeAsp][NMeF]-NH2 | 730 | 0.14 | 6400 | 0.31 | – |
| {C18 diacid-γGlu-AEEA-AEEA}-D[sY]LGWP[DMeAsp][NMeF]-NH2 | 150 | 0.17 | 1000 | 0.19 | – |
| D[sY]LGWI[DMeAsp][NMeF]-NH2 [Asp-sTyr-Leu-Gly-Trp-Ile-DMeAsp-MePhe-amide] | > 1000 | 0.24 | 6100 | 0.078 | – |
